# Experimental data from publication PMC3159472.
# Target: F-SSB-Ct peptide (SSB-Ct with an N-terminal fluoresceine moiety) (E. coli)
# Assay: fluorescence polarisation
substance,measurement,value
SSB–ExoI fusion protein,Kd,1100 nM
